How the values were obtained:
human CD47 [1] = target: T1, human CD47 (human, UniProt Q08722 19-139, limits assumed); assay: ELISA of transient expression product; the sheet names no antigen and shows one curve per antibody; format not stated for this figure, read as the PD-L1/CD47 bridging ELISA of Example 3
T1 construct: also called hCD47

human PD-L1 [2] = target: T2, human PD-L1 (human, UniProt Q9NZQ7 19-238, limits assumed); assay: as above
T2 construct: also called hPD-L1

[3] = target: T3, Human CD47-His (constructed by GeneScience) (human, UniProt Q08722 19-139); assay: SPR, Biacore T200, CD47-His coupled to chip, antibody as analyte
T3 construct: also called hCD47
Description: (§1) The affinities of antibodies with B2 structure and with FV1 structure were detected by Biacore T200 instrument. The specific protocols were as follows. Human PD-L1-His and human CD47-His were coupled to CMS biosensor chip (GE), and then the antibodies of different concentrations were flowed through the chip at a flow rate of 30 μL/min. The binding between the candidate antibody and antigen was performed with a binding time of 120 s and a dissociation time of 300 s. The kinetic fitting was performed using BIAevalution software (GE), and the results of affinity constants were obtained as shown in Table 2 and Table 3.

Human PD-L1-His = target: T4, Human PD-L1-His (human, UniProt Q9NZQ7 19-238, limits assumed); assay: SPR, Biacore T200, PD-L1-His coupled to chip, antibody as analyte
T4 construct: not shown: His tag
Description: as §1

[4] = target: T3, Human CD47-His (constructed by …); assay: bridging ELISA of Example 3: PD-L1-mFc coated, purified antibody titrated, CD47-His as second antigen; paragraph 132 prints the value without a unit, the unit is from the sheet's axis Antibody(ug/ml)
Description: (§2) 1. Coating the first antigen: Human PD-L1-mFc (constructed by GeneScience, SEQ ID NO: 22) was diluted with PBS to 1 μg/mL, and then added to a 96-well microtiter plate at 50 μL per well and incubated overnight at 4° C.
(§3) 4. Adding the second antigen: Human CD47-His (constructed by GeneScience, SEQ ID NO: 23) was diluted with PBS to 10 μg/mL, and then added to the 96-well microtiter plate at 50 μL per well and incubated at 25° C. for 1 hour.
(§4) 8. Detection: After terminating the reaction, the microtiter plate was immediately put into the microplate reader. The OD value at 450 nm was measured, and the original data was saved for sorting.

[5] = target: Human PD-L1-mFc (constructed by GeneScience) (human); assay: as above
Description: as §2, §3, §4

human CD47 [6] = target: T1, human CD47; assay: ELISA of transient expression product; no antigen named on the sheet; PD-L1 Ab and CD47 Ab are both flat, so read as the PD-L1/CD47 bridging ELISA of Example 3; no unit beside the EC50, unit taken from the axis Antibody(ug/ml)
human PD-L1 [7] = target: T2, human PD-L1; assay: as above

T1 sequence (Q08722 19-139 limits assumed): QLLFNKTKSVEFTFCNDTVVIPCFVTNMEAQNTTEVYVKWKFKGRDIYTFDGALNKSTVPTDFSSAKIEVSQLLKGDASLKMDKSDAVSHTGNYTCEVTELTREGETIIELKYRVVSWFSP
T2 sequence (Q9NZQ7 19-238 limits assumed): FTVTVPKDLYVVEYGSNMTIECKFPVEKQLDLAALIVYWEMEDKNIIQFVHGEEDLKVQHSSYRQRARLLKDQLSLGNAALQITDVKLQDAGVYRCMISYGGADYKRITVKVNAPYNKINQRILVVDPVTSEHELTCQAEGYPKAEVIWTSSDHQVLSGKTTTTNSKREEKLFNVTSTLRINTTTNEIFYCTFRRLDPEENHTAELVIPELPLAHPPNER
T4 sequence (Q9NZQ7 19-238 limits assumed): as above
T3 sequence (Q08722 other isoform, or with tags, fused parts or gaps limits assumed): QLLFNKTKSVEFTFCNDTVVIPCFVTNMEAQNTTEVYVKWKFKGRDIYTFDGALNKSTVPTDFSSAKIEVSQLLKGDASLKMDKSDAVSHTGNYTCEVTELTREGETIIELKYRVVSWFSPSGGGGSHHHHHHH
Chain of Human PD-L1-mFc (constructed by GeneScience) (human) (chain, as listed by the source limits assumed): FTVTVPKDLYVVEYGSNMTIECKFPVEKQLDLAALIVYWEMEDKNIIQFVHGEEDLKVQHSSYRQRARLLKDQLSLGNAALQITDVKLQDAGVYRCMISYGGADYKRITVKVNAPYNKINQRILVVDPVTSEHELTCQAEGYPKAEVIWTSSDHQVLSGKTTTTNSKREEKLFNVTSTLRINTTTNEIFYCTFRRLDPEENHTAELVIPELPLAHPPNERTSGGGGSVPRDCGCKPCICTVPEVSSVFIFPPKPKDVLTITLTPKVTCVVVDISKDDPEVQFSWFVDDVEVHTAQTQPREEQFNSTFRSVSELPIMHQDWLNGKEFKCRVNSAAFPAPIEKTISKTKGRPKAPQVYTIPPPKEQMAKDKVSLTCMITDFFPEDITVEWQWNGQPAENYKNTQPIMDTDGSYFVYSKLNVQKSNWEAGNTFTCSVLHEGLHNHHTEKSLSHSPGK

B1: B4 (bispecific antibody)
chain 1: QVQLVQSGAEVKKPGASVKVSCKASGYTFTNYVLHWVRQAPGQRLEWMGYFNPYNDDSKYNEKFKGRVTITRDTSASTAYMELSSLRSEDTAVYYCARGGYYSMDYWGQGTLVTVSSGGGGSGGGGSGGGGSASDIVMTQTPLSLPVTPGQPASISCRASQSLAHSNGYTYLQWYLQKPGQSPQLLIYKVSKRFSGVPDRFSGSGSGTDFTLKISRVEAEDVGVYYCSQSTHVPYTFGQGTKVEIKASTKGPSVFPLAPSSKSTSGGTAALGCLVKDYFPEPVTVSWNSGALTSGVHTFPAVLQSSGLYSLSSVVTVPSSSLGTQTYICNVNHKPSNTKVDKKVEPKSCDK
chain 2: RTVAAPSVFIFPPSDEQLKSGTASVVCLLNNFYPREAKVQWKVDNALQSGNSQESVTEQDSKDSTYSLSSTLTLSKADYEKHKVYACEVTHQGLSSPVTKSFNRGECEVQLVESGGGLVQPGGSLRLSCAASYFPFSDSWIHWVRQAPGKGLEWVAWISPYGGSSYYADSVQDRFTISADTSKNTAYLQMNSLRAEDTAVYYCAKRHWPGGFDHWGQGTLVTVSSGGGGSGGGGSGGGGSASDIQMTQSPSSLSASVGDRVTITCSASQDVTTAVAWYQQKPGKAPKLLIYSASFPYRGVPSRFSGSGSGTDFTLTISSLQPEDFATYYCQQYMYHPSTFGQGTKVEIK
notes: also called B4 structure; H4+L4
- EC50 (read off the curve) (human CD47 [1]): ~0.09 µg/mL
- EC50 (read off the curve) (human PD-L1 [2]): ~0.09 µg/mL

B2: B1 (bispecific antibody)
chain 1: ASTKGPSVFPLAPSSKSTSGGTAALGCLVKDYFPEPVTVSWNSGALTSGVHTFPAVLQSSGLYSLSSVVTVPSSSLGTQTYICNVNHKPSNTKVDKKVEPKSCDKQVQLVQSGAEVKKPGASVKVSCKASGYTFTNYVLHWVRQAPGQRLEWMGYFNPYNDDSKYNEKFKGRVTITRDTSASTAYMELSSLRSEDTAVYYCARGGYYSMDYWGQGTLVTVSSGGGGSGGGGSGGGGSASDIVMTQTPLSLPVTPGQPASISCRASQSLAHSNGYTYLQWYLQKPGQSPQLLIYKVSKRFSGVPDRFSGSGSGTDFTLKISRVEAEDVGVYYCSQSTHVPYTFGQGTKVEIK
chain 2: EVQLVESGGGLVQPGGSLRLSCAASYFPFSDSWIHWVRQAPGKGLEWVAWISPYGGSSYYADSVQDRFTISADTSKNTAYLQMNSLRAEDTAVYYCAKRHWPGGFDHWGQGTLVTVSSGGGGSGGGGSGGGGSASDIQMTQSPSSLSASVGDRVTITCSASQDVTTAVAWYQQKPGKAPKLLIYSASFPYRGVPSRFSGSGSGTDFTLTISSLQPEDFATYYCQQYMYHPSTFGQGTKVEIKRTVAAPSVFIFPPSDEQLKSGTASVVCLLNNFYPREAKVQWKVDNALQSGNSQESVTEQDSKDSTYSLSSTLTLSKADYEKHKVYACEVTHQGLSSPVTKSFNRGEC
notes: also called B1 structure; H1+L1
- EC50 (read off the curve) (human CD47 [1]): ~0.2 µg/mL
- EC50 (read off the curve) (human PD-L1 [2]): ~0.2 µg/mL

B3: bivalent bispecific antibody with B2 structure (H2+L2) (bispecific antibody)
heavy: ASTKGPSVFPLAPSSKSTSGGTAALGCLVKDYFPEPVTVSWNSGALTSGVHTFPAVLQSSGLYSLSSVVTVPSSSLGTQTYICNVNHKPSNTKVDKKVEPKSCDKEVQLVESGGGLVQPGGSLRLSCAASYFPFSDSWIHWVRQAPGKGLEWVAWISPYGGSSYYADSVQDRFTISADTSKNTAYLQMNSLRAEDTAVYYCAKRHWPGGFDHWGQGTLVTVSSGGGGSGGGGSGGGGSASDIQMTQSPSSLSASVGDRVTITCSASQDVTTAVAWYQQKPGKAPKLLIYSASFPYRGVPSRFSGSGSGTDFTLTISSLQPEDFATYYCQQYMYHPSTFGQGTKVEIK
light: QVQLVQSGAEVKKPGASVKVSCKASGYTFTNYVLHWVRQAPGQRLEWMGYFNPYNDDSKYNEKFKGRVTITRDTSASTAYMELSSLRSEDTAVYYCARGGYYSMDYWGQGTLVTVSSGGGGSGGGGSGGGGSASDIVMTQTPLSLPVTPGQPASISCRASQSLAHSNGYTYLQWYLQKPGQSPQLLIYKVSKRFSGVPDRFSGSGSGTDFTLKISRVEAEDVGVYYCSQSTHVPYTFGQGTKVEIKRTVAAPSVFIFPPSDEQLKSGTASVVCLLNNFYPREAKVQWKVDNALQSGNSQESVTEQDSKDSTYSLSSTLTLSKADYEKHKVYACEVTHQGLSSPVTKSFNRGEC
notes: The two chains form a heterodimer through a CL-hinge disulfide bond, and there is no Fc; also called B2 bispecific antibody; preferred antibody B2
- Kd [3]: 25.8 nM
- Kd (Human PD-L1-His): 0.109 nM
- koff (Human PD-L1-His): 4.28e-05 s⁻¹
- kon (Human PD-L1-His): 395000 M⁻¹ s⁻¹
- EC50 [4]: 0.564 µg/mL
- EC50 [5]: 0.564 µg/mL

B4: bivalent bispecific antibody with FV1 structure (H5+L5+H6+L6) (bispecific antibody, human IgG1, kappa)
heavy 1: not shown
light 1: DIQMTQSPSSLSASVGDRVTITCSASQDVTTAVAWYQQKPGKAPKLLIYSASFPYRGVPSRFSGSGSGTDFTLTISSLQPEDFATYYCQQYMYHPSTFGQGTKVEIKRTVAAPSVFIFPPSDEQLKSGTASVVCLLNNFYPREAKVQWKVDNALQSGNSQESVTEQDSKDSTYSLSSTLTLSKADYEKHKVYACEVTHQGLSSPVTKSFNRGEC
heavy 2: not shown
light 2: DVVMTQTPLSLPVSLGDQASISCRSSQSLVHSKGNTYLHWYLQKPGQSPKLLIYRVSNRFSGVPDRFSGSGSGTDFTLKISRVEAEDLGVYFCSQSTHVPFTFGSGTKLEIKLGGC
notes: It is IgG1-based with knob-into-hole CH3 domains; also called FV1 bispecific antibody
- Kd [3]: 15 nM
- Kd (Human PD-L1-His): 0.271 nM
- koff (Human PD-L1-His): 0.000119 s⁻¹
- kon (Human PD-L1-His): 440000 M⁻¹ s⁻¹
- EC50 [4]: 1.66 µg/mL
- EC50 [5]: 1.66 µg/mL
- EC50 (human CD47 [6]): 0.0887 µg/mL
- EC50 (human PD-L1 [7]): 0.0887 µg/mL

B5: FV3 (bispecific antibody, human IgG1, kappa)
chain 1: not shown
chain 2: DIQMTQSPSSLSASVGDRVTITCSASQDVTTAVAWYQQKPGKAPKLLIYSASFPYRGVPSRFSGSGSGTDFTLTISSLQPEDFATYYCQQYMYHPSTFGQGTKVEIKRTVAAPSVFIFPPSDEQLKSGTASVVCLLNNFYPREAKVQWKVDNALQSGNSQESVTEQDSKDSTYSLSSTLTLSKADYEKHKVYACEVTHQGLSSPVTKSFNRGEC
chain 3: not shown
chain 4: DVVMTQTPLSLPVSLGDQASISCRSSQSLVHSKGNTYLHWYLQKPGQSPKLLIYRVSNRFSGVPDRFSGSGSGTDFTLKISRVEAEDLGVYFCSQSTHVPFTFGSGTKLEIKGGGGSGGGGSGGGGSASLGGC
notes: also called FV3 structure; H5+L5+H8+L8
- EC50 (human CD47 [6]): 0.179 µg/mL
- EC50 (human PD-L1 [7]): 0.179 µg/mL

B6: FV2 (bispecific antibody, human IgG1, kappa)
chain 1: not shown
chain 2: DIQMTQSPSSLSASVGDRVTITCSASQDVTTAVAWYQQKPGKAPKLLIYSASFPYRGVPSRFSGSGSGTDFTLTISSLQPEDFATYYCQQYMYHPSTFGQGTKVEIKRTVAAPSVFIFPPSDEQLKSGTASVVCLLNNFYPREAKVQWKVDNALQSGNSQESVTEQDSKDSTYSLSSTLTLSKADYEKHKVYACEVTHQGLSSPVTKSFNRGEC
chain 3: not shown
chain 4: DVVMTQTPLSLPVSLGDQASISCRSSQSLVHSKGNTYLHWYLQKPGQSPKLLIYRVSNRFSGVPDRFSGSGSGTDFTLKISRVEAEDLGVYFCSQSTHVPFTFGSGTKLEIKSGGGGSASLGGC
notes: also called FV2 structure; H5+L5+H7+L7
- EC50 (human CD47 [6]): 0.186 µg/mL
- EC50 (human PD-L1 [7]): 0.186 µg/mL

B7: FV4 (bispecific antibody, human IgG1, kappa)
chain 1: not shown
chain 2: DIQMTQSPSSLSASVGDRVTITCSASQDVTTAVAWYQQKPGKAPKLLIYSASFPYRGVPSRFSGSGSGTDFTLTISSLQPEDFATYYCQQYMYHPSTFGQGTKVEIKRTVAAPSVFIFPPSDEQLKSGTASVVCLLNNFYPREAKVQWKVDNALQSGNSQESVTEQDSKDSTYSLSSTLTLSKADYEKHKVYACEVTHQGLSSPVTKSFNRGEC
chain 3: not shown
chain 4: DVVMTQTPLSLPVSLGDQASISCRSSQSLVHSKGNTYLHWYLQKPGQSPKLLIYRVSNRFSGVPDRFSGSGSGTDFTLKISRVEAEDLGVYFCSQSTHVPFTFGSGTKLEIKSGGGGSASLGGC
notes: also called FV4 structure; H5+L5+H9+L7
- EC50 (human CD47 [6]): 0.146 µg/mL
- EC50 (human PD-L1 [7]): 0.146 µg/mL

Reference: patent US20220073610A1 (CHANGCHUN GENESCIENCE PHARMACEUTICAL, published 2022)
